Results published in US20240174992A1 (PROMEGA, published 2024).

How the values were obtained:
[1] = biological target: HaloTag[22-297](Q145H+P154R)-6×His; experiment: purified system, 80 nM large fragment, peptide titration, TMR ligand
[2] = biological target: T1, HaloTag[22-297](Q145H+P154R); experiment: apparent affinity from peptide titration of the large fragment in E. coli lysate, JF646 fluorescence complementation; signal approaches saturation
T1 construct: also called LgHT variant

[3] = biological target: T2, HaloTag[22-297](M2F); experiment: apparent affinity from peptide titration (up to 1 mM) of the large fragment in E. coli lysate, JF646 fluorescence complementation; signal did not saturate
T2 construct: also called LgHT (M2F variant); Large HaloTag
T2 sequence (chain, as listed by the source): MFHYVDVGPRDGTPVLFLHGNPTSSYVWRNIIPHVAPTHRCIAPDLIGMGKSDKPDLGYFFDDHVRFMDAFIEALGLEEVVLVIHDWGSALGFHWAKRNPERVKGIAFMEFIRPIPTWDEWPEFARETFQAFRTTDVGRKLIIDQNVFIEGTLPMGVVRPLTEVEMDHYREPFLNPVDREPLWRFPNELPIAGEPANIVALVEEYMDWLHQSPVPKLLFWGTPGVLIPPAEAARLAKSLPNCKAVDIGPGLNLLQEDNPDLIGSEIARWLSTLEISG

Sequence of HaloTag[22-297](Q145H+P154R)-6×His (chain, as listed by the source Q145H P154R Q145H P154R): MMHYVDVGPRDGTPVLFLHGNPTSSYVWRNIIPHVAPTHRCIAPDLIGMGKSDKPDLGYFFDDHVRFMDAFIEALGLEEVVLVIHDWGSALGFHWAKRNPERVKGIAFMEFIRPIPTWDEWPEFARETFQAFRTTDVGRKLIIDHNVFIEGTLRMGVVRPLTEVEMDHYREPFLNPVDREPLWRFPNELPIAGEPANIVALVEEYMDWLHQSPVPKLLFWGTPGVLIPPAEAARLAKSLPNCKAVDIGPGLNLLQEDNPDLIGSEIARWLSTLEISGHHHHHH
T1 sequence (chain, as listed by the source Q145H P154R Q145H P154R): as the sequence (chain, as listed by the source) above, with F2M, Q145H, P154R counted along it

binding result [1]: binds
Kd [2]: ~1 µM
Kd [3]: > 100 µM
Binder: EIGTGFPFDPHYVEVLG (also called HT(3-19); SmHT) [synthetic HaloTag[3-19] peptide]
